B1: humanized N55D-substituted mAb107 (humanized IgG4κ mAb107) (antibody, V domains shown)
VH: QVQLVQSGAEVKKPGASVKVSCKPSGFNIKDIYMQWVRQAPGQRLEWIGRIDPADDKTKYDPKFQGRATITADTSASTAYLELSSLRSEDTAVYYCASEGHYGYDGYAMDYWGQGTTVTVSS
VL: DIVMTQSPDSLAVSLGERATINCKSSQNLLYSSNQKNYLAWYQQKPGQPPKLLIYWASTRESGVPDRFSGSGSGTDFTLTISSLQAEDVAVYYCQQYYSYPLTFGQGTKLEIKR
notes: The VH was joined to a human IgG4 constant region and the VL to a human kappa constant region; also called humAb107; humanized mAb107
B2: Humanized mutagenized mAb107 IgG4k heavy chain V5 (antibody, V domains shown)
VH: B1 VH
VL: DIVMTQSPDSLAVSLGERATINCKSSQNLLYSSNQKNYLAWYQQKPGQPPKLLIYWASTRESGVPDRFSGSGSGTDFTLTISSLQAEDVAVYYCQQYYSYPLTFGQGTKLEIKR
notes: The residue limits were counted on the printed translation; The heavy chain carries the N-to-D substitution in CDR2 and S228P in the IgG4 hinge; also called Humanized mutagenized anti-CD11b; humanized IgG4κ mAb107 containing Pro 228

Experiments:
A-domain of CD11b [1] = target: T1, A-domain of CD11b (UniProt P11215 139-337); experiment: BLI (Octet), A-domain of CD11b as ligand
T1 construct: domain: A-domain; Used as the ligand in BLI (Octet); also called CD11b A-domain; CD11bA domain
T1 sequence (P11215 139-337 limits assumed): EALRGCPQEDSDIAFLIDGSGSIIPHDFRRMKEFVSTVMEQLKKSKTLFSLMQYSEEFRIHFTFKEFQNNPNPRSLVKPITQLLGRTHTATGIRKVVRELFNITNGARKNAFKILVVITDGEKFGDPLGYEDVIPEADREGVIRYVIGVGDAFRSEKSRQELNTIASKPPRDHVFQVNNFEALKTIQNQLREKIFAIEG
Description: Production, purification, and evaluation: Expi293 cells (Thermo Fisher) were used to produce recombinant antibodies. Cells were grown on orbital shaker (125 rpm) in Expi293 Expression Medium (Thermo Fisher) at 37° C. in 5% CO2. Expi293 cells were transiently transfected with 1:1 heavy chain and light chain plasmids, using manufacturer's protocol. Culture supernatant was harvested after one week, and IgG was purified using Protein G agarose beads (Thermo Scientific). We routinely obtained 1-3 mg of purified IgG per 100 ml of cell culture. The protein sizes of the heavy and light chains and purity of the IgG were confirmed on SDSPAGE. Affinity of the humanized mAb107 vs. mouse mAb107 was measured using the A-domain of CD11b as ligand by Bio-layer interferometry (BLI) using the Octet Assay system.

A-domain of CD11b [2] = target: T1, A-domain of CD11b; experiment: assay not given; presumably BLI on the CD11b A-domain as in Example 1; lower end of the printed range 5-9 nM

Binder	Kd (A-domain of CD11b [1]) [nM]	Kd (A-domain of CD11b [2]) [nM]
B1	5 to 9	
B2		5 to 9
